Laboratory results from patent US20050026839A1 (GENERAL HOSPITAL, published 2005).
Like-named read-outs stand apart in the source and are kept apart here. Square brackets hold non-standard residues; d marks the D form. Ends that are not written are not given here. hArg = N=C(N)NCCCC[C@H](N)C(=O)O; Nle = CCCC[C@H](N)C(=O)O; Aib = CC(C)(N)C(=O)O

T1: wild-type human PTH/PTHrP receptor (hP1R-WT) (human, UniProt Q03431 27-593)
T1 sequence (looked up): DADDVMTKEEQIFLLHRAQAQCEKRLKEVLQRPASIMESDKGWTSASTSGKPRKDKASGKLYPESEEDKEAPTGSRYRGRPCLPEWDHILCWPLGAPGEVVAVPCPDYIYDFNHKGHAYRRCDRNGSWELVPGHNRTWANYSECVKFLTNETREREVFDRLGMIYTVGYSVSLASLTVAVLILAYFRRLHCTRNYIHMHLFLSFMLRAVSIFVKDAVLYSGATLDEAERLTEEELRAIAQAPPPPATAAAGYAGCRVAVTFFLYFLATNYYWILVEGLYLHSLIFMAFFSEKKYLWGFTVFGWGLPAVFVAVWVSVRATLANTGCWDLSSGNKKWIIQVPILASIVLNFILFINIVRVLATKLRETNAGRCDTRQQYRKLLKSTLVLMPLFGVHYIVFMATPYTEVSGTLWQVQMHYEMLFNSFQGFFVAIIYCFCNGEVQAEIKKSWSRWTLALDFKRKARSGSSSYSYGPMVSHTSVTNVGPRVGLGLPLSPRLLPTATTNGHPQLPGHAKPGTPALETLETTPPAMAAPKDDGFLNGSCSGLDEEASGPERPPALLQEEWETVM

T2: truncated human P1R deleted for residues (24-181) (hP1R-delNt) (human, UniProt Q03431 182-593)
T2 sequence (looked up): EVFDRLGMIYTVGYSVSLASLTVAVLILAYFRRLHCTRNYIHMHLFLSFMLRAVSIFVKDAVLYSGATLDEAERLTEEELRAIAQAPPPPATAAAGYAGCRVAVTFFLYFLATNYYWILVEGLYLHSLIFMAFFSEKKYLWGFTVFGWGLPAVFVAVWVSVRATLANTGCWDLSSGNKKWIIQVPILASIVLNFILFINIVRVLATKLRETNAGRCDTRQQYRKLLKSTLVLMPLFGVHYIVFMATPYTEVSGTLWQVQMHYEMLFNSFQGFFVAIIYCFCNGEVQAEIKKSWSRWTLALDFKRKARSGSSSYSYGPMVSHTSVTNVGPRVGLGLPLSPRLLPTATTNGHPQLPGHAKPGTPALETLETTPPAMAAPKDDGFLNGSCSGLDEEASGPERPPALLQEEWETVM

B1: [Nle^8,21,Tyr^34]PTH(1-34)amide (rat sequence) (peptide)
peptide: AVSEIQLXHNLGKHLASVERXQWLRKKLQDVHNY
modifications: Nle (norleucine) at 8 and 21; C-terminal amide
notes: also called 92 PTH(1-34); 92.5 PTH(1-34)
B2: [Aib^5,M]PTH(1-14) (peptide)
peptide: AVAE[Aib]QLMHQ[hArg]AKW-NH2
modifications: N-terminus assumed
SMILES: CSCC[C@H](NC(=O)[C@H](CC(C)C)NC(=O)[C@H](CCC(N)=O)NC(=O)C(C)(C)NC(=O)[C@H](CCC(=O)O)NC(=O)[C@H](C)NC(=O)[C@@H](NC(=O)[C@H](C)N)C(C)C)C(=O)N[C@@H](Cc1c[nH]cn1)C(=O)N[C@@H](CCC(N)=O)C(=O)N[C@@H](CCCCNC(=N)N)C(=O)N[C@@H](C)C(=O)N[C@@H](CCCCN)C(=O)N[C@@H](Cc1c[nH]c2ccccc12)C(N)=O
B3: [Aib^1,3,Gln^10]PTH(1-10) (peptide)
peptide: [Aib]V[Aib]EIQLMHQ-NH2
modifications: N-terminus assumed
SMILES: CC[C@H](C)[C@H](NC(=O)[C@H](CCC(=O)O)NC(=O)C(C)(C)NC(=O)[C@@H](NC(=O)C(C)(C)N)C(C)C)C(=O)N[C@@H](CCC(N)=O)C(=O)N[C@@H](CC(C)C)C(=O)N[C@@H](CCSC)C(=O)N[C@@H](Cc1c[nH]cn1)C(=O)N[C@@H](CCC(N)=O)C(N)=O
notes: also called 684 [Aib^1,3, M]PTH (1-10); [Aib^1,3,M]PTH(1-10)
B4: [Ala^3,12,Gln^10,Har^11,Trp^14]PTH(1-14)amide (peptide)
peptide: AVAEIQLMHQ[hArg]AKW-NH2
modifications: N-terminus assumed
SMILES: CC[C@H](C)[C@H](NC(=O)[C@H](CCC(=O)O)NC(=O)[C@H](C)NC(=O)[C@@H](NC(=O)[C@H](C)N)C(C)C)C(=O)N[C@@H](CCC(N)=O)C(=O)N[C@@H](CC(C)C)C(=O)N[C@@H](CCSC)C(=O)N[C@@H](Cc1c[nH]cn1)C(=O)N[C@@H](CCC(N)=O)C(=O)N[C@@H](CCCCNC(=N)N)C(=O)N[C@@H](C)C(=O)N[C@@H](CCCCN)C(=O)N[C@@H](Cc1c[nH]c2ccccc12)C(N)=O
notes: X = Har; also called [M]PTH(1-14); 621 [M]PTH(1-14)

How the values were obtained:
[1] = biological target: T1, wild-type human PTH/PTHrP receptor …; test: cell-based or functional assay
[2] = biological target: T2, truncated human P1R deleted for …; test: cell-based or functional assay
[3] = biological target: T2, truncated human P1R deleted for …; test: competition binding vs 125I-[Aib1,3,M]PTH(1-21), COS-7 cells with hP1R-delNt
Experimental: (§1) Stock solutions of EGTA/trypsin and antibiotics were from GIBCO; fetal bovine serum was from Hyclone Laboratories (Logan, Utah). […] All cells, in 24-well plates, were treated with fresh media and shifted to 33° C. for 12 to 24 h prior to assay.
(§2) Competition Binding. Binding reactions were performed with HKRK-B28 cells or in COS-7 cells in 24-well plates. The cells were rinsed with 0.5 mL of binding buffer, and then treated successively with 100 μL binding buffer, 100 μL of binding buffer containing various amounts of unlabeled competitor ligand, and 100 μL of binding buffer containing ca. 100,000 cpm of ¹²⁵I-[M]PTH(1-21) or ¹²⁵I-[Aib^{1,3},M]PTH(1-21)} (ca. 26 fmol; final volume=300 μL). Incubations were 4 to 6 h at 4° C., at which time near equilibrium conditions were attained. Cells were then placed on ice, the binding medium was removed, and the monolayer was rinsed three times with 0.5 mL of cold binding buffer. The cells were subsequently lysed with 0.5 mL […] NaOH and counted for radioactivity. For each tracer and in each experiment, the non-specific binding was determined as the radioactivity that bound in the presence of the same unlabeled peptide at a concentration of 1 μM, and was ˜1% of total radioactivity added for each tracer. The maximum specific binding (B₀) was the total radioactivity bound in the absence of competing ligand, corrected for nonspecific binding, and for each tracer, ranged from 8% to 20% of the total radioactivity added. Nonlinear regression was used to calculate binding IC₅₀ values (see below). Scatchard transformations of homologous competition binding data derived from studies with 26 fmol of ¹²⁵I-[Aib^{1,3},M]PTH(1-21) were employed for estimations of apparent equilibrium dissociation constant (kDapps) and total number of ligand binding sites (Bₘₐₓ), assuming a single class of binding sites and equal affinities of the iodinated and non iodinated ligand.

[4] = biological target: T1, wild-type human PTH/PTHrP receptor …; test: cell-based or functional assay; remark: listed apart in the source
[5] = biological target: T1, wild-type human PTH/PTHrP receptor …; test: cell-based or functional assay; remark: listed apart in the source
[6] = biological target: T1, wild-type human PTH/PTHrP receptor …; test: competition binding, 125I-[Aib1,3,M]PTH(1-21) tracer, COS-7 cells expressing hP1R-WT
Experimental: as §2

[7] = biological target: T1, wild-type human PTH/PTHrP receptor …; test: competition binding, 125I-[M]PTH(1-21) tracer, HKRK-B28 cells, 4 h at 4 C
Experimental: as §2
Peptides PTH(1-34) ([Nle^{8,21}, Tyr³⁴]PTH(1-34)amide), [M]PTH(1-14) (M = Ala^{3,12}, Gln¹⁰, Har¹¹, Trp¹⁴), and [M]PTH(1-14 analogs, or C-terminally truncated derivatives thereof, containing α-aminoisobutyric acid (Aib) substitutions at the indicated positions were functionally evaluated in HKRK-B28 cells. “M” in [Aib^{1,3}, M]PTH(1-21) = Nle⁸, Gln¹⁰, Har¹¹, Ala¹², Trp¹⁴, Arg¹⁹ and Tyr²¹. The basal cAMP values (not subtracted) were 4.0 ± 0.1 pmole/well (n = 10). Peptides were based on the rat PTH sequence and were carboxy-amidated. Competition binding analyses were performed with ¹²⁵I-[M]PTH(1-21 )amide (Ala^{1,3}) as tracer for 4 h at 4° C. Data are means (±S.E.M.) Of the number of experiments indiated (n).

[8] = biological target: T1, wild-type human PTH/PTHrP receptor …; test: radioligand binding to HKRK-B28 cells
[9] = biological target: T2, truncated human P1R deleted for …; test: radioligand binding, COS-7 cells with P1R-delNt
[10] = biological target: wild-type human PTH/PTHrP receptor (hP1R-WT) (human) (UniProt Q03431); test: cell-based or functional assay
[11] = biological target: wild-type human PTH/PTHrP receptor (hP1R-WT) (human) (UniProt Q03431); test: competition binding, 125I-[M]PTH(1-21) tracer, HKRK-B28 cells
[12] = biological target: T1, wild-type human PTH/PTHrP receptor …; test: competition binding vs 125I-[Aib1,3,M]PTH(1-21), COS-7 cells with hP1R-WT
[13] = biological target: T2, truncated human P1R deleted for …; test: competition binding, 125I-[Aib1,3,M]PTH(1-21) tracer, COS-7 cells expressing hP1R-delNt
Experimental: as §1, §2

[14] = biological target: T2, truncated human P1R deleted for …; test: cell-based or functional assay; remark: listed apart in the source
[15] = biological target: T1, wild-type human PTH/PTHrP receptor …; test: cell-based or functional assay; remark: listed apart in the source
[16] = biological target: T2, truncated human P1R deleted for …; test: cell-based or functional assay; remark: listed apart in the source

Row | Binder | cAMP EC50 [1] [nM] | cAMP EMax(obs.) [1] [pmole/well] | cAMP EC50 [2] [nM] | cAMP EMax(obs.) [2] [pmole/well] | binding result [3] | cAMP EC50 [4] [nM] | cAMP EMax(obs.) [4] [pmole/well] | other results
1 | B1 | 1.4 | 240 | 680 | 220 | no binding | 2.5 | 280 | PLC EC50 [1]: 17 nM; PLC EMAX(obs.) [1]: 4.2 foldxbasal; cAMP EC50 in SaOS-2 cells [5]: 0.2 nM; IC50 [6]: 12 nM; IC50 [7]: 18 nM
2 | AVAEIQL[Nle]HQ[hArg]AKWY-NH2 (also: 125I radiolabel, iodinated residue not given here) [^125I-[Ala^3,12Nle^8Gln^10,Har^11,Trp^14,Tyr^15]PTH(1-15)amide] | – | – | – | – | – | – | – | binding result [8]: no binding
3 | AVAEIQL[Nle]HQ[hArg]AKWLASVRRY-NH2 (also: 125I radioiodinated, residue not given here, Tracer radioligand) [^125I-[M]PTH(1-21)] | – | – | – | – | – | – | – | binding result [9]: no binding
4 | B2 | – | – | – | – | – | – | – | cAMP EC50 [10]: 66000 nM; cAMP EMax(obs.) [10]: 169 pmole/well; fold reduction in affinity relative to [M]PTH(1-14) [11]: < 10 fold
5 | AVSEIQLMHNLGKH-NH2 (also called 521 PTH(1-14)) [native PTH(1-14) (rat sequence, amide)] | 90000 | 140 | 140000 | 110 | no binding | – | – | –
6 | B3 | 100000 | 120 | 53000 | 84 | no binding | 16000 | 111 | binding result [12]: no binding
7 | B4 | 49 | 240 | 40 | 220 | – | 100 | 270 | PLC EC50 [1]: 4700 nM; PLC EMAX(obs.) [1]: 3.9 foldxbasal; IC50 [13]: 17400 nM; cAMP EC50 in SaOS-2 cells [5]: 340 nM; IC50 [6]: 20000 nM; IC50 [7]: 13000 nM
8 | [Aib]V[Aib]EIQLMHQ[hArg]AKWLNSMRRVEWLRKKLQDVHNY-NH2 [[Aib^1,3,Gln^10,Har^11,Ala^12,Trp^14,Arg^19,Tyr^34]hPTH(1-34)] | – | – | – | – | – | – | – | cAMP EC50 [14]: 1.9 nM
9 | [Aib]V[Aib]EIQLMHNLGKHLNSMERVEWLRKKLQDVHNY-NH2 [[Aib^1,3,Tyr^34]-hPTH(1-34)] | – | – | – | – | – | – | – | cAMP EC50 [15]: 0.67 nM; cAMP EC50 [16]: 43 nM
